These results are taken from US9408922B2, “Anti-tofacitinib antibodies and uses thereof for drug monitoring” (Pfizer Inc., priority 2012, dated 2016).

Common to all, as to type: binding
Assay [1] in a line: Competitive immunoassay-3 with Metabolite 1 as competitor (Example 7). The settings on record: for 4-P Fit parameter C, Concentration vs % B/B0: Metabolite 1 as competitor, biotinylated tofacitinib 1 ng/ml; for cross reactivity to metabolite 1 (in words, FIG. 3): competitive immunoassay. The protocol:
(§1) After washing the plates, 200 μl of streptavidin-HRP (50 ng/ml) was added and the plates were then incubated for 0.5-1 hour at room temperature. After washing the plates again, 200 μl of TMB (3,3′,5,5′-Tetramethylbenzidine) substrate was added, then color developed for 30 minutes, and the reaction was stopped by adding 50 μl 2 N sulfuric acid. Absorbance at 450 nm was measured.
For this example, eleven anti-tofacitinib monoclonal antibodies were screened for cross reactivity with metabolite 1 using competitive immunoassay. […] After washing the plates, 200 μl of streptavidin-HRP (50 ng/ml) was added and then incubated for 0.5-1 hour at room temperature. After washing the plates again, 200 μl of TMB substrate was added, then developed for 30 minutes, and stopped by adding 50 μl 2 N sulfuric acid. Absorbance at 450 nm was measured.

Assay [2] is described as follows: Antigen competition immunoassay, unlabeled tofacitinib vs biotinylated tofacitinib (Example 8). The protocol:
After washing the plates, 200 μl of streptavidin-HRP (50 ng/ml) was added and then incubated for 0.5-1 hour at room temperature. After washing the plates again, 200 μl of TMB substrate was added, then developed for 30 minutes, and stopped by adding 50 μl 2N sulfuric acid. Absorbance at 450 nm was measured.

Assay [3] is described as follows: Cross reactivity competitive ELISA with Metabolite 1 (Example 9). To be noted: metabolite 200,000 to 200 ng/ml; antibody at EC50 dilution. The protocol:
(§2) Two clones, 6D9.A8 and 12D4.G6, were tested for cross reactivity to metabolites 1 and 2. In this experiment, the metabolites were prepared at concentrations of 200,000 to 200 ng/ml and the antibody clones were prepared at their EC50 dilutions shown in Table 1.
For orientation: In an ELISA, binding on a coated surface is turned into a signal by an enzyme label.

Assay [4] can be described thus: Cross reactivity competitive ELISA with Metabolite 2 (Example 9). The settings on record: metabolite 200,000 to 200 ng/ml; antibody at EC50 dilution. The protocol: as §2
Assay [5] in a line: Antigen ED50 in cross reactivity experiment (Example 9). The settings on record: antibody at EC50 dilution; biotinylated tofacitinib 1 ng/mL. The protocol: as §2
The nature of assay [6]: Standard curve with tofacitinib, ELISA (Example 10). To be noted: biotinylated tofacitinib 1 ng/ml. From the text: FIG. 4 is a graph depicting optimal dilution ranges of select monoclonal antibodies of the invention, e.g., 6D9.A8 (open circles) and 12D4.G6 (open squares) as determined by ELISA.
A short description of assay [7]: Tofacitinib dose response curves with antibody clones (Example 12). To be noted: for Antigen ED50: Table 10; for Tofacitinib ED50: tofacitinib 0.001 to 1000 ng/ml, antibody dilution 1:25,600 (6D9.A5), 1:4,000 (6D9.A8), 1:22,000 (12D4.G6); for 4-P Fit parameter C, Concentration vs % B/B0: tofacitinib standard curve. The text has this: Further, the data used to generate the graph shown in FIG. 5 are set forth below in Table 9.

The nature of assay [8]: Cross reactivity to Metabolite 1, competitive immunoassay-3 or direct ELISA (Example 12). The settings on record: for Metabolite 1 Cross reactivity: Table 10. The protocol: as §1
Assay [9] is described as follows: Cross reactivity to Metabolite 2, competitive immunoassay-3 or direct ELISA (Example 12). To be noted: for Metabolite 2 Cross reactivity: Table 10. The protocol: as §1
[10] abbreviates: unlabeled tofacitinib 1000 to 0.001 ng/ml, antibody at EC50 dilution.

B1: 12D4.G6: mouse monoclonal anti-tofacitinib antibody; VH SEQ ID NO:12, VL SEQ ID NO:4 (antibody, listed as Mus musculus, V domains shown)
VH: QVQLKESGPGLVAPSQSLSITCTVSGFSLSIYSVHWVRQPPGKGLEWLGMIWGGGNTDYNSVLKSRLSISKDNSKSQVFLKVNSLQTDDTAMYYCARIYYGIFWGQGTLVTVSA
VL: NIVMTQSPKSMSMSVGERVTLTCKASENVVTYVSWYQQKPEQSPKLLIYGASNRYTGVPDRFTGSGSATDFTLTISSVQAEDLADYHCGQGYSYPYTFGGGTKLEIKR
For the molecule B1, in assay [1], the “4-P Fit parameter C, Concentration vs % B/B0” value was 2.14 × 10^7 and the “cross reactivity to metabolite 1 (in words, FIG. 3)” value is reported as “did not detectably bind metabolite 1”. In addition, the “competition by unlabeled tofacitinib for binding to biotinylated tofacitinib (in words)” value in [2] is “competition was seen”. Besides, in assay [2] (setting [10]), the ED20 was 0.457 µg/mL, the ED50 turned out to be 0.104 µg/mL and the ED80 came to 0.024 µg/mL. Also, in assay [3], the “Metabolite-1 Cross reactivity” value came to 4.17%. In addition, in assay [4], the “Metabolite-2 Cross reactivity” value is on record as 0.15%. Also, the “Antigen ED50” value in [5] came out at 0.152 µg/mL. Also, the “4-P Fit parameter C” value in assay [6] is recorded as 109. Also, in assay [7], the “Antigen ED50” value came to 118 ng/mL; the “Tofacitinib ED50” value was 0.118 µg/mL; the “4-P Fit parameter C, Concentration vs % B/B0” value is listed as 108. Further, in assay [8], the “binding of metabolite 1 (in words)” value is “did not substantially bind” and the “Metabolite 1 Cross reactivity” value came to 4.17%. In addition, in [9], the “binding of metabolite 2 (in words)” value was “did not substantially bind” and the “Metabolite 2 Cross reactivity” value was 0.15%.

B2: 6D9.A5: mouse monoclonal anti-tofacitinib antibody; VH SEQ ID NO:7, VL SEQ ID NO:4; replacement subclone for 6D9.A8 (antibody, listed as Mus musculus, V domains shown)
VH: QVQLKESGPGLVAPSESLTITCTVSGFSLSRYSIHWVRQPPGKGLEWLGMIWGGGSTDYNSVLKSRLTIRKDYSKSQVFLKMNSLQTDDTAMYYCARIYYGIYWGQGTLVTVSA
VL: NIVMTQSPKSMSMSVGERVTLTCKASENVVTYVSWYQQKPEQSPKLLIYGASNRYTGVPDRFTGSGSATDFTLTISSVQAEDLADYHCGQGYSYPYTFGGGTKLEIKR
notes: mouse monoclonal anti-tofacitinib antibody; replacement subclone for 6D9.A8
As to B2, the “cross reactivity to metabolite 1 (in words, FIG. 3)” value in [1] is listed as “did not detectably bind metabolite 1”. Further, in assay [7], the “binding of the parent drug, potency compared with antibody 12D4.G6 (in words)” value is “more potent binders of the parent drug”; the “Antigen ED50” value came to 244 ng/ml ng/mL; the “Tofacitinib ED50” value was 0.244 µg/mL; the “4-P Fit parameter C, Concentration vs % B/B0” value is 224. Besides, in assay [8], the “binding of metabolite 1 (in words)” value is “did not substantially bind” and the “Metabolite 1 Cross reactivity” value was found to be 4.47%. Besides, in assay [9], the “binding of metabolite 2 (in words)” value is “did not substantially bind” and the “Metabolite 2 Cross reactivity” value was less than 0.01%.

B3: 12H4.G2: mouse monoclonal anti-tofacitinib antibody; VH SEQ ID NO:8, VL SEQ ID NO:9 (antibody, listed as Mus musculus, V domains shown)
VH: DVQLQGSGPDLVKPSQSLSLTCTVTGYSITSGYSWNWIRQFPGNTLEWMGFIHYSGSTNYNPSLKSRISITRDTSKNQFFLQLNSVTTEDTATYYCVRGPYGSSFYWGQGTTLTVSS
VL: QAVVTQESALTTSPGETVTLTCRSSTGAVTTSNYATWVQEKPDHLFTGLIGGTNNRAPGVPARFSGSLIGDKAALTLTGAQTEDEAIYFCALWYSNHWVFGGGTKLTVL
On to B3, for which, in assay [1], the “4-P Fit parameter C, Concentration vs % B/B0” value worked out at 0.383 and the “cross reactivity to metabolite 1 (in words, FIG. 3)” value is given as “did not detectably bind metabolite 1”.

B4: 10A6.C5: mouse monoclonal anti-tofacitinib antibody; VH SEQ ID NO:3, VL SEQ ID NO:4 (antibody, listed as Mus musculus, V domains shown)
VH: DVQLQESGPDLVKPSQSLSLTCTVTGYSITSGYSWNWIRQFPGNTLEWMGYIHYSGSTNYNPSLKSRISITRDTSKNQFFLQLNSVTTEDTATYYCVRGPYGSSFYWGQGTTLTVSS
VL: NIVMTQSPKSMSMSVGERVTLTCKASENVVTYVSWYQQKPEQSPKLLIYGASNRYTGVPDRFTGSGSATDFTLTISSVQAEDLADYHCGQGYSYPYTFGGGTKLEIKR
Take B4: in assay [1], the “4-P Fit parameter C, Concentration vs % B/B0” value is recorded as 0.389 and the “cross reactivity to metabolite 1 (in words, FIG. 3)” value is given as “did not detectably bind metabolite 1”.

B5: 16F10.E6: mouse monoclonal anti-tofacitinib antibody; VH SEQ ID NO:10, VL SEQ ID NO:11 (antibody, listed as Mus musculus, V domains shown)
VH: DMQLQESGPDLVKPSQSLSLTCTVTGYSITSGYSWNWIRQFPGNTLEWMGYIHYSGNTVYNPSLKSRLSITRDTSKNQFFLQLNSVTTEDTATYYCVRGPYGSSFYWGQGTTLTVSS
VL: DIVMTQSQKFMSTSVGDRVSVTCKASQNVGTNVAWYQQKPGQSPKALIYSASYRYSGVPDRFTGSGSGTDFTLTISNVQSEDLAEYFCQQYYNYPLTFGAGTKLELKR
Take B5: the “cross reactivity to metabolite 1 (in words, FIG. 3)” value in [1] is given as “did not detectably bind metabolite 1”.

B6: 5A3.E5: mouse monoclonal anti-tofacitinib antibody; VH SEQ ID NO:1, VL SEQ ID NO:2 (antibody, listed as Mus musculus, V domains shown)
VH: EVKLVESGGGLVQPGGSLRLSCATSGFTFNDYYMTWVRQPPGKALEWLGFIRNKADGYTPYYSPSVKGRFTISRDNSQSILYLQMNTLRTEDSATYYCARPHYYGFPFGYWGQGTLVTVSA
VL: QAVVTQESALTTSPGETVTLTCRSSTGAVTTNNYANWVQEKPDHLFTGLIGGTNSRAPGVPARFSGSLIGDKAALTITGAQTEDEAMYFCALWYSNHWVFGGGTKLTVL
For the molecule B6, in assay [1], the “4-P Fit parameter C, Concentration vs % B/B0” value is 0.191 and the “cross reactivity to metabolite 1 (in words, FIG. 3)” value is “did not detectably bind metabolite 1”.

B7: 10F10.H5: mouse monoclonal anti-tofacitinib antibody; VH SEQ ID NO:5, VL SEQ ID NO:6 (antibody, listed as Mus musculus, V domains shown)
VH: DVQLQESGPDLVKPSQSLSLTCTVTGYSITSGYSWNWIRQFPGNTLEWMGYIHYSGTTNYNPSLKSRISITRDTSKNQFFLQLNSVTAEDTATYYCARGPYGSSFYWGQGTTLAVSS
VL: QIVLTQSPAIMSASPGEKVTVTCSASSSVSSMHWFQQKPGTSPKLWIYSTSNLASGVPTRFSGSGSGTSYSLTISRMEAEDVATYYCQQRNNYPYTFGGGTKLEIKR
As for B7, in [1], the “4-P Fit parameter C, Concentration vs % B/B0” value worked out at 0.345 and the “cross reactivity to metabolite 1 (in words, FIG. 3)” value is “did not detectably bind metabolite 1”.
